Laboratory results from publication PMC8542614 (Nature, 2021).
Read-outs that look alike come from different tables or passages of the source.

Legend:
[1] = biological target: T1, HCV E2 ectodomain (eE2), full length, residues 384-656, genotype J6 (HCV genotype J6, N-linked glycans (fully glycosylated)); assay: ITC
[2] = biological target: T1, HCV E2 ectodomain (eE2), full length, …; assay: ITC; remark: listed apart in the source

B1: tamarin CD81 large extracellular loop (tCD81-LEL), residues 112-202, with plasmid-encoded N-terminal residues (domain or fragment)
chain: GFVNKDQIAKDVKQFYDQALQQAVVDDDANNAKAVVKTFHETLNCCGSSTLSALTTSMLKNNLCPSGSSIISNLFKEDCHQKIDELFSGKL
Kd [1]: 175 nM
dH [1]: -8.52 kcal/mol
stoichiometry N [1]: 0.67
Kd [2]: 37 nM
dH [2]: -12.3 kcal/mol
stoichiometry N [2]: 0.57
